Laboratory results from doi:10.64898/2025.12.06.692711, “Archaeal histone HTkC hypercompacts DNA”.

Target: T1, HTkC (Thermococcus kodakarensis, UniProt Q5JDW7)
T1 sequence: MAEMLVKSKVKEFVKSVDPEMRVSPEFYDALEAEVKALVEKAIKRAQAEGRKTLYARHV
Test: X-ray crystallography; 1.95 A; EMSA: 50 mM Tris-HCl pH 7.0, 75 mM KCl, 14.5% glycerol, room temperature 30 min, gel in 0.5x TBE at 4 C; TPM: 50 mM Tris pH 7.0, 75 mM KCl
Details: protein: recombinant; chain copies: 4; blunt

B1: 30 bp-GC50 (dsDNA)
DNA 1: TTAAAGCCCGTTAAAGCCCGTTAAAGCCCG
DNA 2: CGGGCTTTAACGGGCTTTAACGGGCTTTAA
B1: binds.
